# Test results from publication PMC4506123, “Identification of an Isothiocyanate on the HypEF Complex Suggests a Route for Efficient Cyanyl–Group Channeling during [NiFe]–Hydrogenase Cofactor Generation” (PLoS ONE, 2015).
# B1: HypE (natural protein, E. coli, UniProt P24193 1-336, looked up)
# chain: MNNIQLAHGSGGQAMQQLINSLFMEAFANPWLAEQEDQARLDLAQLVAEGDRLAFSTDSYVIDPLFFPGGNIGKLAICGTANDVAVSGAIPRYLSCGFILEEGLPMETLKAVVTSMAETARAAGIAIVTGDTKVVQRGAVDKLFINTAGMGAIPANIHWGAQTLTAGDVLLVSGTLGDHGATILNLREQLGLDGELVSDCAVLTPLIQTLRDIPGVKALRDATRGGVNAVVHEFAAACGCGIELSEAALPVKPAVRGVCELLGLDALNFANEGKLVIAVERNAAEQVLAALHSHPLGKDAALIGEVVERKGVRLAGLYGVKRTLDLPHAEPLPRIC
# notes: HypE, [NiFe]-hydrogenase maturation protein of E. coli; 36 kDa monomer; C-terminal cysteine C336 in E. coli nomenclature; also called His-tagged HypE; auxiliary protein HypE; source: isolated from E. coli, purified as described previously [21] with 10 mM magnesium acetate in all buffers
# Biological target: T1, HypF (E. coli, UniProt P30131 1-750)
# T1 construct: HypF, carbamoyltransferase of [NiFe]-hydrogenase maturation of E. coli; 82 kDa; also called His-tagged HypF; auxiliary protein HypF; source: isolated from E. coli, purified as described previously [21] with 10 mM magnesium acetate in all buffers
# T1 sequence (looked up): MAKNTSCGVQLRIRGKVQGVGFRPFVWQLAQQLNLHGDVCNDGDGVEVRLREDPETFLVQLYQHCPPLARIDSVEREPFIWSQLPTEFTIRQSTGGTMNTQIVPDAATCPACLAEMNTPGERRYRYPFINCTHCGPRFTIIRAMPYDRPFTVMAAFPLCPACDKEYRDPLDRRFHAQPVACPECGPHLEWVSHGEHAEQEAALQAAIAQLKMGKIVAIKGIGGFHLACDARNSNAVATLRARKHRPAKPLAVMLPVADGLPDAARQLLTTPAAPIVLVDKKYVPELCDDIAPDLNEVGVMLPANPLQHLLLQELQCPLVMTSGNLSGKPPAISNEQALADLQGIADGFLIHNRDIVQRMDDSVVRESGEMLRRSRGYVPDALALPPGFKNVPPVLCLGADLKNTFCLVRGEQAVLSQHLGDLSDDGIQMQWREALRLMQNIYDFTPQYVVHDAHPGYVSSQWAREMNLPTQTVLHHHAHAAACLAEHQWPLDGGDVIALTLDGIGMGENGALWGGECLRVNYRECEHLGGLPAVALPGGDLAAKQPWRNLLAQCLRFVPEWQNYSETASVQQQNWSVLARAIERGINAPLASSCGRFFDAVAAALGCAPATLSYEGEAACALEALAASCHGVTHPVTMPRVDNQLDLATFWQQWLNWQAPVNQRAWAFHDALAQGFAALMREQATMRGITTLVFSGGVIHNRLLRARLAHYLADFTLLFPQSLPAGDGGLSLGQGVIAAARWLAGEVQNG
# Experiment: native gel or EMSA; native PAGE as described earlier [35,36]; isolated HypE and HypF; no further conditions told for this experiment
# Conditions: both partners purified
binder,measurement,value
B1,binding result,binds
